Experimental data taken from article PMC9712583, “Time-resolved β-lactam cleavage by L1 metallo-β-lactamase” (Nature Communications, 2022).

Molecular target: the molecule itself
Assay: SEC; L1 in solution; conditions not given

B1: L1 metallo-β-lactamase (MBL) from Stenotrophomonas maltophilia (enzyme)
chain: SAAEAPLPQLRAYTVDASWLQPMAPLQVADHTWQIGTEDLTALLVQTAEGAVLLDGGMPQMAGHLLDNMKLRGVAPQDLRLILLSHAHADHAGPVAELKRRTGAHVAANAETAVLLARGGSNDLHFGDGITYPPASADRIIMDGEVVTVGGIAFTAHFMPGHTPGSTAWTWTDTRDGKPVRIAYADSLSAPGYQLKGNPRYPRLIEDYKRSFATVRALPCDLLLTPHPGASNWNYAVGSKASAEALTCNAYADAAEKKFDAQLARETAGTR
notes: L1 metallo-β-lactamase, Stenotrophomonas maltophilia K279a, residues 20-290, amplified from genomic DNA and cloned into pMCSG53; Homotetramer; Active-site residue numbers in the text (H116, H118, D120 ...) appear to follow the standard MBL numbering, not the 20-290 numbering of the construct; also called L1 MBL; source: E. coli BL21 DE3 (Gold), purified (IMAC, TEV cleavage, second IMAC); not …
With B1 the “stoichiometry N” value was 4.
